The values below come from patent US20230174596A1 (published 2023).

First the molecules themselves.
T1: hVEGF-A (8-109) (human, UniProt P15692 214-315)
T1 construct: residue numbers count on mature VEGF-A; dimer
T1 sequence (looked up): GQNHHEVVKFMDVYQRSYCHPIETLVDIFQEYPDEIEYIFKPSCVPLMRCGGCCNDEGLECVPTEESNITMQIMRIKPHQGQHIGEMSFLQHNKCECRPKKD

The target in the assay is T1, hVEGF-A (8-109). In words: spot phage ELISA.
For GCNPMLPFWGCKQDSDCLAGCVCHWYQSCG (designed binder) [VEGF_CKP9.L1.57], the ELISA stood at 3.7 and the S/N is 31.8.
Molecule GCNIMLPFWGCGTNFLCLAGCVCQYYQSCG (designed binder) [VEGF_CKP9.54.31] displayed an ELISA of 2.3 and a S/N of 32.5.
The like results for GCNIMLPFWGCGVDYLCLAGCVCQYYQSCG (designed binder) [VEGF_CKP9.54.16] were, in that order, 2.4 and 30.8.
The like results for GCNIMLPFWGCGKDFHCLAGCVCQYYQSCG (designed binder) [VEGF_CKP9.54.56] were, in that order, 2.3 and 35.8.
With GCHLFEPLWGCKQDSDCLAGCVCHWYQSCG (designed binder) [VEGF_CKP9.L1.2], the ELISA came out at 1.6 and the S/N was 12.5.
GCRTPWEPHDITCKQDSDCLAGCVCGPNGFCG (designed binder) [VEGF_CKP11]: the ELISA worked out at 4.1 and the S/N turned out to be 57.5.
The corresponding values for GCVTPWKPHWINCKQDSDCLAGCVCGPNGFCG (designed binder) [VEGF_CKP13] are 3.5 and 56.3.
In turn, GCPRILMRCKQDSDCLAGCVCGPNGFCG [EETI-II] showed an ELISA of 0.01 and a S/N of 1.11.
The corresponding values for GCALLQPLWGCKQDSDCLAGCVCRWYNSCG (designed binder) [VEGF_CKP9.69] are 1 and 14.3.
The like results for GCQISQPFWGCKQDSDCLAGCVCHFYNSCG (designed binder) [VEGF_CKP9.3] were, in that order, 1.6 and 24.5.
Take GCNIMLPFWGCQADYACLAGCVCQYYQSCG (designed binder) [VEGF_CKP9.54.14]: the ELISA turned out to be 2.5 and the S/N was found to be 23.5.
For GCNVLLPLWGCKQDSDCLAGCVCHWYQSCG (designed binder) [VEGF_CKP9.L1.64], the ELISA was determined as 2.3 and the S/N is 19.9.
The corresponding values for GCNIMLPFWGCGPELNCLAGCVCQYYQSCG (designed binder) [VEGF_CKP9.54.12] are 2.4 and 38.8.
The corresponding values for GCNIMLPFWGCNRDFLCLAGCVCQYYQSCG (designed binder) [VEGF_CKP9.54.48] are 2.5 and 34.9.
The like results for GCNIMLPFWGCSGDFACLAGCVCQYYQSCG (designed binder) [VEGF_CKP9.54.64] were, in that order, 2.2 and 22.4.
Take GCDVLQPFWGCKQDSDCLAGCVCHWYQSCG (designed binder) [VEGF_CKP9.2]: the ELISA stood at 2.4 and the S/N was 31.1.
The corresponding values for GCQLMHPFWGCKQDSDCLAGCVCHWYRSCG (designed binder) [VEGF_CKP8] are 3.9 and 59.4.
GCQLMQPFWGCKQDSDCLAGCVCRWYHSCG (designed binder) [VEGF_CKP9.L5.43]: the ELISA worked out at 0.9 and the S/N was 13.6.
The corresponding values for GCKIMQPLWGCKQDSDCLAGCVCLWYDSCG (designed binder) [VEGF_CKP9.47] are 1 and 14.6.
The like results for GCHLLLPLWGCKQDSDCLAGCVCRWYHSCG (designed binder) [VEGF_CKP9.76] were, in that order, 1.3 and 15.5.
For the molecule GCNIMLPFWGCGWDQFCLAGCVCQYYQSCG (designed binder) [VEGF_CKP9.54.51], the ELISA worked out at 2.5 and the S/N amounted to 44.5.
The like results for GCQLMQPFWGCKQDSDCLAGCVCRWYNSCG (designed binder) [VEGF_CKP9.L5.7] were, in that order, 1.4 and 18.9.
The corresponding values for GCDIMQPLWGCKQDSDCLAGCVCHWYQSCG (designed binder) [VEGF_CKP9.L1.68] are 2 and 23.2.
The corresponding values for GCQLLQPLWGCKQDSDCLAGCVCRWYQSCG (designed binder) [VEGF_CKP9.71] are 1 and 16.5.
GCQLMQPFWGCKQDSDCLAGCVCHWYQSCG (designed binder) [VEGF_CKP9.L5.18]: the ELISA came out at 1.6 and the S/N stood at 20.4.
The corresponding values for GCQRTQPFWGCKQDSDCLAGCVCRWYQSCG (designed binder) [VEGF_CKP9.22] are 1.2 and 17.2.
The like results for GCNIMLPFWGCGPDLQCLAGCVCQYYQSCG (designed binder) [VEGF_CKP9.54.59] were, in that order, 2.3 and 35.4.
For the molecule GCNPMLPLWGCKQDSDCLAGCVCHWYQSCG (designed binder) [VEGF_CKP9.L1.78], the ELISA is 3 and the S/N stood at 25.1.
The like results for GCNIMLPFWGCGKELNCLAGCVCQYYQSCG (designed binder) [VEGF_CKP9.54.69] were, in that order, 2.5 and 21.7.
The like results for GCKLLQPMWGCKQDSDCLAGCVCRWYQSCG (designed binder) [VEGF_CKP9.14] were, in that order, 2 and 30.1.
The like results for GCHRLQPLWGCKQDSDCLAGCVCHWYQSCG (designed binder) [VEGF_CKP9.L1.19] were, in that order, 1.4 and 11.6.
GCNIMLPFWGCGLDYDCLAGCVCQYYQSCG (designed binder) [VEGF_CKP9.54.2] registered an ELISA of 0.1 and a S/N of 26.
The like results for GCDRMQPYWGCKQDSDCLAGCVCQWYKSCG (designed binder) [VEGF_CKP9.11] were, in that order, 1.1 and 14.1.
With GCQVLQPSWGCKQDSDCLAGCVCHWYQSCG (designed binder) [VEGF_CKP9.L1.79], the ELISA is 1.2 and the S/N is 10.
The corresponding values for GCNIMLPFWGCSRDFDCLAGCVCQYYQSCG (designed binder) [VEGF_CKP9.54.44] are 2.4 and 34.4.
GCQLLEPMWGCKQDSDCLAGCVCHWYNSCG (designed binder) [VEGF_CKP9.9]: the ELISA was determined as 1.1 and the S/N stood at 19.7.
GCDLMQPLWGCKQDSDCLAGCVCHWYQSCG (designed binder) [VEGF_CKP9.L1.76] came in with an ELISA of 2.5 and a S/N of 17.4.
The corresponding values for GCNIMLPFWGCGYDLQCLAGCVCQYYQSCG (designed binder) [VEGF_CKP9.54.87] are 2.4 and 26.1.
The like results for GCQVMQPAWGCKQDSDCLAGCVCHWYQSCG (designed binder) [VEGF_CKP9.L1.8] were, in that order, 1.2 and 12.8.
The corresponding values for GCQVMRPFWGCKQDSDCLAGCVCHWYQSCG (designed binder) [VEGF_CKP9.L1.7] are 1.5 and 8.9.
In turn, GCRLLEPSWGCKQDSDCLAGCVCQWYQSCG (designed binder) [VEGF_CKP9.72] registered an ELISA of 0.6 and a S/N of 10.
GCPAIQNWKEHPCKQDSDCLAGCVCSWWPSLCG (designed binder) [VEGF_CKP5] showed an ELISA of 1.9 and a S/N of 28.4.
The like results for GCNIMLPFWGCGWSMDCLAGCVCQYYQSCG (designed binder) [VEGF_CKP9.54.76] were, in that order, 2.7 and 42.2.
Molecule GCNIMLPFWGCGQSFECLAGCVCQYYQSCG (designed binder) [VEGF_CKP9.54.1] gave an ELISA of 2.4 and a S/N of 29.9.
As for GCKLFEPLWGCKQDSDCLAGCVCRWYESCG (designed binder) [VEGF_CKP9.96], the ELISA stood at 1.2 and the S/N was 18.4.
With GCNLMHPFWGCKQDSDCLAGCVCHWYQSCG (designed binder) [VEGF_CKP9.51], the ELISA came out at 1 and the S/N was found to be 11.
In turn, GCKKWQWWYMCKQDSDCLAGCVCYPWTECG (designed binder) [VEGF_CKP4] had an ELISA of 2.6 and a S/N of 35.3.
